In one experiment the target is human FcγR3A (human) (UniProt P08637). As to the kind of experiment: ELISA, FcγR3A coated on plate, anti-human IgG HRP, chemiluminescence. For orientation: ELISA stands for enzyme-linked immunosorbent assay.
The target in another experiment is Human TIGIT (human) (UniProt Q495A1). Put plainly: flow cytometry receptor occupancy on patients' whole blood, competitive anti-TIGIT antibody MBSA43 as detector, Q2W dosing. On the technique in general: In flow cytometry, cells or beads pass a laser one at a time.

Where only a bound is given, the exact number is not on record here.

Chain of Human TIGIT (human) (Q495A1 other isoform, or with tags, fused parts or gaps): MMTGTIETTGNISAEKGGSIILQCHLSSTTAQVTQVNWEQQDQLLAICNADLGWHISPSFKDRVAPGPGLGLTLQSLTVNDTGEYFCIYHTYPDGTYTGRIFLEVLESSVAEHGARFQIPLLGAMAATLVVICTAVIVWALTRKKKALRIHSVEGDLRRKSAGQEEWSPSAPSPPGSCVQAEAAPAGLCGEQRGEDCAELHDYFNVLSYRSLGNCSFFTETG
Chain of human FcγR3A (human) (P08637 17-208 limits assumed): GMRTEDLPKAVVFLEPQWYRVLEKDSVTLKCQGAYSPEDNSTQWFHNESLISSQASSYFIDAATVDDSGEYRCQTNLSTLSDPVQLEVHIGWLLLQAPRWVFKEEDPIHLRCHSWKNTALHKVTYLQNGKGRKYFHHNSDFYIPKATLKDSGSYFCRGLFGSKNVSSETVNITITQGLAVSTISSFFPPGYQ

In the experiment with human FcγR3A (human), domvanalimab (antibody) showed a percent of the binding of human IgG1 to the same receptor of 20%. In the experiment with Human TIGIT (human), this substance showed a receptor occupancy (RO) of over 98%.
